Here are results for 23 sequences from the DeepSol protein solubility set.

The series in a line: soluble on expression in E. coli; label from the status in PepcDB or PDB records.
As to “SLLKKIKKALFQPKKFFQDSMWLTTSPFYLTPPRNNLFVISNLGQLNQVQSLIKIQKLTNNLLVILYTSKNLKMPKLVHQSANKNLFESIYLFELPRSPNNITPKKLLYIYRSYKKILNIIQPAHLYMLSFTGHYSYLISIAKKKNITTHLIDEGTGTYAPLLESFSYHPTKLERYLIGNNLNIKGYIDHFDILHVPFPEYAKKIFNAKKYNRFFAHAGGISINNNIANLQKKYQISKNDYIFVSQRYPISDDLYYKSIVEILNSISLQIKGKIFIKLHPKEMGNNYVMSLFLNMVEINPRLVVINEPPFLIEPLIYLTNPKGIIGLASSSLIYTPLLSPSTQCLSIGELIINLIQKYSMVENTEMIQEHLEIIKKFNFINILNDLNGVISNPLFKTEETFETLLKSAEFAYKSKNYFQAIFYWQLASKNNITLLGHKALWYYNALYNVKQIYKMEYSDIFYIDNISVDFHSKDKLTWEKIKHYYYSADNRIGRDR”, the “soluble on expression in E. coli” value is “not soluble”.

Turning to “KGIFSWESALTATYNKNEILDLNSETPMFINQIGNSYVTMLKAGYPINVFYGYVTDGLFQNWGEVNRHATQPGAAPGDIRFRDLNNDGVINDEDRTILGNPNPNWFFSLSNNLSYKGWELSVFLQGVAGNKIYNANNVDNEGMAAAYNQTTAVLNRWTGEGTSYSMPRAIWGDPNQNCRVSDRFVENGSYLRLKNITLSYTLPKKWLQKIQLENARISFSCENVATITRYSGFDPEVDVNGIDSSRYPISRTFSMGLNFNF”, the “soluble on expression in E. coli” value is “not soluble”.

Regarding “QQQHKVLKTVKVTEQLKHCSEILKEMLAKKHLPYAWPFYNPVDADALGLHNYYDVVKNPMDLGTIKGKMDNQEYKDAYEFAADVRLMFMNCYKYNPPDHEVVAMARTLQDVFELHFAKIPDEPIES”, the “soluble on expression in E. coli” value was “soluble”.

With “MSLKNFINFHILISHSPSCLNRDDMNMQKSAVFGGERRVRVSSQSLKRAIRKSDYYRQHLGEASVRTKKLDELIAIINDRLAGRYDTDLLKKTVGLLAGKELSVEVATEGDAVAPWAIEEVAWFCEQVKRMVAQGQDEKALGKLLKNETAAMRQALASGVDIALSGRMATSGLMSELGKVDGALAVAHVLTTHSVDADIDWFTAVDDLQELGSGHLDTQEFSSGVFYRYASLNVKQLQENLGNAPREKALEIGAHLLHMLATIVPSAKQQSFAAHNLADLALVSFSDIPVSLANAFEKPVRSVNGSGFKEPSIAELHNYWQQIHTGYGLSERCGEFILGQSSVPEGITRKSTIEELKTWVMNNGEGEGHHHHHH”, the “soluble on expression in E. coli” value is reported as “soluble”.

For the sequence “MNKLYIGNLSPAVTADDLRQLFGDRKLPLAGQVLLKSGYAFVDYPDQNWAIRAIETLSGKVELHGKIMEVDYSVSKKLRSRKIQIRNIPPHLQWEVLDGLLAQYGTVENVEQVNTDTETAVVNVTYATREEAKIAMEKLSGHQFENYSFKISYIPDEEVSSPSPPQRAQRGDHSSREQGHAPGGTSQARQIDFPLRILVPTQFVGAIIGKEGLTIKNITKQTQSRVDIHRKENSGAAEKPVTIHATPEGTSEACRMILEIMQKEADETKLAEEIPLKILAHNGLVGRLIGKEGRNLKKIEHETGTKITISSLQDLSIYNPERTITVKGTVEACASAEIEIMKKLREAFENDMLAVNQQANLIPGLNLSALGIFSTGLSVLSPPAGPRGAPPAAPYHPFTTHSGYFSSLYPHHQFGPFPHHHSYPEQEIVNLFIPTQAVGAIIGKKGAHIKQLARFAGASIKIAPAEGPDVSERMVIITGPPEAQFKAQGRIFGKLKEENFFNPKEEVKLEAHIRVPSSTAGRVIGKGGKTVNELQNLTSAEVIVPRDQTPDENEEVIVRIIGHFFASQTAQRKIREIVQQVKQQEQKYPQGVASQRSK”, the “soluble on expression in E. coli” value is on record as “soluble”.

Consider “SLKLLIEEFIPVEEISEEAKKEKLGNAKPPIFSLHYWWARKPLITARAAVLGALISKENLPMIVGNGDLKTNLLRILRIPKDINEGPRAHTQDPPAEYLKEAIIKTWGEIPTVLDPFAGGGSIPFEALRLGCNAVAVDYNPVAYLILKETLEYPKKYGMKLIL”, for which the “soluble on expression in E. coli” value is “soluble”.

Turning to “MVSYKLTYFDGRGAGELCRQIFAAAEQKYEDNRLTDEEWEKFKAAGKTPYNQLPMLEVDGKPLAQSHAMARYLAREFGFNGKSRWEEAQVNSLADQYKDYYAEARPYLAVKLGYTEGDAEALYTSVYLPVFKKHYGFFVNALKASGSGFLVGNSLTFIDLLVAQHSADLLGREKSDLFNDVPEMKAHSEKVQSIPQIKKWIETRPASDW”, the “soluble on expression in E. coli” value is listed as “not soluble”.

For “MHHHHHHSSGVDLGTENLYFQSMINSFYAFEVKDAKGRTVSLEKYKGKVSLVVNVASDCQLTDRNYLGLKELHKEFGPSHFSVLAFPCNQFGESEPRPSKEVESFARKNYGVTFPIFHKIKILGSEGEPAFRFLVDSSKKEPRWNFWKYLVNPEGQVVKFWRPEEPIEVIRPDIAALVRQVIIKKKEDL”, the “soluble on expression in E. coli” value was “soluble”.

Take “MGSDKIHHHHHHMNTKKESALSFPSAGIESFGERLKELMGDESLRAFANAIDTSEGGVRKWFTQSTMPSFDKMVRIARRYNVNLEWLCTGEGPKFPGETAAYESVICKTEEFSEEYALIDGYHTQVSTGHGAQWDNERVRRKLAFRSKWLRYRGLQPENLRVVFAKGDSMEPTIHSGDSILVDITDANLSDGSIFVLRIGDDLFAKRVQVHIDGSITIISDNKEYREQRVPVAELGLLSVVGKVVWIGKDVK”: the “soluble on expression in E. coli” value is on record as “not soluble”.

With “MHHHHHHSSGVDLGTENLYFQSMEETEKWMEEAMHMAKEALENTEVPVGCLMVYNNEVVGKGRNEVNQTKNATRHAEMVAIDQVLDWCRQSGKSPSEVFEHTVLYVTVEPCIMCAAALRLMKIPLVVYGCQNERFGGCGSVLNIASADLPNTGRPFQCIPGYRAEEAVEMLKTFYKQENPNAPKSKVRK”, the “soluble on expression in E. coli” value is “soluble”.

For KEKARAMRVNKRAPQMDWNRKREIFSNF, the “soluble on expression in E. coli” value is “soluble”.

For the sequence “MKVIKSNKVTNKFKVSILISTYNKEKFIENTLNNILAQTMNKNDFELIIVDDCSTDNTLDIISKKIESFSNYQFVQLDENSGTPAKPRNLSIDLSKGKYIMFVDGDDWLPSDALENLYTLLKSNKTDYATGLTKYVYSDRIARSGVALSKIAYNKIGLKNFRKSFYHLAPAGRMMKSSVIKKNNIRFPEMIFGEDLQFFAEVFFNTKNISTTQDVVYCANRYDENISLVKSEASTVLNRIKWQNEAYRYLTKKYKNNKIFANLLYRIINKDILEGKFYKKGFIKEIDTLLPVFQDILNTIDNDFNSLDYADDTLNQHALTLIKNGDKEEIIDFVNFYLKKDEKPLYLSNDKYYYVYKENKYKKRMHIILQKIIKKDENIFLKLYSKNSELKYLEIKNRKDPTNYTVLEIKKHLFKTGEYTVQFKANELSKGKLALTVLDKDLNGAAIKSGMQFDFYETVNGNLGYIKKLEHHHHHH”, the “soluble on expression in E. coli” value is “soluble”.

“MVKIVELQEKESLYYCTKDEDHFFDRKAFGLKGEKVQKIAVAFANADGGEILVGIADDKDEVIPEKRWQGQESTEAYNSVIQALSELVPSVDFRFDFLTRVNESRNYVLRVKINKGLSVHETAKKKIFLRQGAQSLPVTAPIKILELTHAKGIISEEDSLVNSASIDELDSSIELTKFLSELPIRAPDPITFLLKEKLVDSETWAPTVAAVLLFAENPSAELPKQCAIRIVRYDTDGEDIDRDALTEDNIAIEGSLYQQIQDAYSKIELFLSKNKVWKVEGLVETKYPKETIWEILVNTVIHRDYAISDNVLVSIFNNRIEFKSPGRFTGFVTAENILENRCSRNSKIVRILSKYKDSPNKDLGEGMNTAFQRMRSMGLRDPEILEDGNYVKIILRHSSNDDPETLIMKFIESNGEINNRQARDLTGIDRTEKVTYQFSKLRDKGLIQRKDSSTGLKSSWIAVLEHHHHHH”: the “soluble on expression in E. coli” value was “not soluble”.

As for “TGLLLSLIALSLQAAQLTASVDRTRLNAGETVELTLETDDVTQFGKPDMSSLEASFEVRDTRQLNSLKTLDGSSQATTRWIVTLLPRETGSVIIPSLQLGELKSQPLTLQVMQSETKEPTSHLASIFIEASLDQDSVYVQAQAVLTLRVYHSVSLFDDSSLN”, the “soluble on expression in E. coli” value is on record as “soluble”.

Take “MKIVWYGHACFLVKTKGVSILIDPYPDVDEDRMEKVDYILITHEHMDHYGKTPLIAKLNDAEVIGPKTVYLMAISDGLTKVREVEADQEFQLGDVTVKTFYTEHPTSQYPLGYLILGEKRVAHLGDTYYSPGFRELRGQVDILLVPIGGRSTASEREAVDIIDIIRPRIVVPMHYGTYGSTGNVESFKRELQRRRVWVLVKDLKPYEGFEV”: the “soluble on expression in E. coli” value was “soluble”.

“GPGSMINLPDMWTAEQRRQHVAEMYRNKGLICPDYFLKNECPRSSSCSYIHIRNGETRKVPLSVCHFYAKRACLRDKCVFFHGTQAQLDQLHAMGAQTYRPQDYMAFAIPPPELLGTDQNVAPPVVTMPMPVPAPLVNNTMPISKPATNSPLLLLPIDASAATPFSMYWSSSPCQHRSPLSPAPIPGLAEPRPPAVSHPYTVFSFFQ”: the “soluble on expression in E. coli” value is given as “not soluble”.

For “MELPVVDLSSYLDFSGDELGSDLLESCRQVSRILKETGALIVKDPRCCAQDNDRFIDMMENYFEKPDDFKRLQQRPNLHYQVGATPEGVEVPRSLVDEEMQEKFNTMPNEYKPHIPKGPDHKWRYMWRVGPRPSNTRFKELNSEPVVPEGFPGWEEVMDSWGYKMISAVEVVAEMAAIGFGLPKDAFTSLMKQGPHLLAPTGSDLNCYNEEGTIFAGYHYDLNFLTIHGRSRFPGLYIWLRNGEKVAVKVPVGCLLIQAGKQIEWLTAGECIAGMHEVVVTSKTKDAITLAKEQNRSLWRVSSTLFAHIASDAELKPLGHFAESSLASKYPAIPAGEYVEQELSVINLKGNKGSS”, the “soluble on expression in E. coli” value is on record as “soluble”.

With “MLDVQHSKFGFTKGCIIAVFLLSLSRTLNRGQLSLDRFKFWQPTSQLLALDMCLCDASALEHHHHHH”, the “soluble on expression in E. coli” value was “not soluble”.

Turning to “MDVSLPCIKIQVQTRYIEEQSNPEYQRFVFAYLITIKNLSSQTVQLMSRRWLITDADGKQTVVEGDGVVGEQPRIKANDEYTYSSGTALDTPVGVMQGQYLMIDEQGESFTVEIEPFRLAVPHVLNLEHHHHHH”, the “soluble on expression in E. coli” value was “soluble”.

Regarding “MSFKDFSFEFNGEPIHFSITSHPDKDLVHFNSTGRIGQVIEVIQPPEILSSQLSDQQRVEYELKSLLGNPELPGVELFIRRFVIHFAGTNQRKSALFVFGIDLDGIPNECIAAALQALEENH”, the “soluble on expression in E. coli” value was “not soluble”.

“MHHHHHHSSGRENLYFQGIRMSQILEPRSEEDWTAHRTRIVCTMGPACWNVDTLVKMIDAGMNVCRLNFSHGDHETHARTVQNIQEAMKQRPEARLAILLDTKGPEIRTGFLKDHKPITLQQGATLKIVTDYNLIGDETTIACSYGALPQSVKPGNTILIADGSLSVKVVEVGSDYVITQAQNTATIGERKNMNLPNVKVQLPVIGEKDKHDILNFGIPMGCNFIAASFVQSADDVRYIRGLLGPRGRHIRIIPKIENVEGLVNFDEILAEADGIMIARGDLGMEIPPEKVFLAQKMMIAKCNVVGKPVITATQMLESMIKNPRPTRAEAADVANAVLDGTDCVMLSGETANGEFPVITVETMARICYEAETCVDYPALYRAMCLAVPPPISTQEAVARAAVETAECVNAAIILALTETGQTARLIAKYRPMQPILALSASESTIKHLQVIRGVTTMQVPSFQGTDHVIRNAIVVAKERELVTEGESIVAVHGMKEEVAGSSNLLKVLTVE”: the “soluble on expression in E. coli” value is recorded as “soluble”.

With “MNDKEKIYNQLHHDAPIQIMPAPENLFVEYIEDGEVWYSPVVCIALSKAHNINFYDSDDVGCIDKAATCSIKKFNPETGEFEQFSKMAQKEITQ”, the “soluble on expression in E. coli” value is “not soluble”.

As to “MAHHHHHHMGTLEAQTQGPGSMNAGLDQVDPIWHSIRAEAEEATRNDPVLGAFLYATILNQPSLEEAVMHRIAERLGHPDVSADILRQTFDTMLEANPEWSHVLRVDIQAVYDRDPAYSRFMDPVLYLKGFHAIQTHRLAHWLYKQGRKDFAYYLQSRSSSIFQTDIHPAARLGSGLFLDHATGLVVGETAVVEDNVSILHGVTLGGTGKSSGDRHPKIRQGVLIGAGAKILGNIQVGQCSKIAAGSVVLKSVPHNVTVAGVPARIIGETGCTEPSRVMDQMLGDGI”, the “soluble on expression in E. coli” value is listed as “soluble”.
